# Experimental data as given in the DeepSol protein solubility set.
# Test: soluble on expression in E. coli; label from the status in PepcDB or PDB records
row,Sequence,soluble on expression in E. coli
1,MQKHWWHKATVYQIYPKSFMDTNGDGIGDLKGITSKLDYLQKLGVMAIWLSPVYDSPMDDNGYDIANYEAIADIFGNMADMDNLLTQAKMRGIKIIMDLVVNHTSDEHAWFIEAREHPDSSERDYYIWCDQPNDLESIFGGSAWQYDDKSDQYYLHFFSKKQPDLNWENANLRQKIYDMMNFWIDKGIGGFRMDVIDMIGKIPAQHIVSNGPKLHAYLKEMNAASFGQHDLLTVGETWGATPEIAKQYSNPVNHELSMVFQFEHIGLQHKPEAPKWDYVKELNVPALKTIFNKWQTELELGQGWNSLFWNNHDLPRVLSIWGNTGKYREKSAKALAILLHLMRGTPYIYQGEEIGMTNYPFKDLNELDDIESLNYAKEAFTNGKSMETIMDSIRMIGRDNARTPMQWDASQNAGFSTADKTWLPVNPNYKDINVQAALKNSNSIFYTYQQLIQLRKENDWLVDADFELLPTADKVFAYLRKVREERYLIVVNVSDQEEVLEIDVDKQETLISNTNESAALANHKLQPWDAFCIKILEHHHHHH,soluble
2,TVPDFSAFAVEVPALKSNDEAIDAQIDKLRERFGELKDTKRKLKTDDFAIIDIEAAIDGEKLEEATTEGMSYQVGAGDLIDGLDTALRGLKAGESAEFTTTLKAGEHEGKEAAVTVTVQQTKERKLPELDEEFVQTASEFDTVEELRESIAEQVAEQAKAEQATAIRDEVLKAALAEATFELPEGVVEDQIHAQLHQLLNQVGGDEAALNAALEAQGTSREQFDADNRKNSEEAVRTQLFLDALAEQEQPEVSQQELTDHILFTAQSYGMDPNQFITQLQQSGQIGNLFSDVRRGKALAAAICRVSVKDDEGKAVDPSEYFGEEEESAEESE,not soluble
3,MFQSSAAPAPQTADVTNPFGNFAAPSAFPTNVPPPAAHSAPFGVQPAPQHSAAPFYANLHQAPPMQSQAPNGHQAAPFGYPNAHPDDLARMTAQMSLNQQGAPAGWNTTTSAVSNNPFGATSAPQPMYTAPMGMYQQPFGAQPMWNPAMAAYGQQYGYGQPVPPQQQHQIQLVHAAMAAKNAAQAQQAQAASADPFGL,not soluble
4,MRTVALGIVAMACLVAIAHGGNFFQDAEVSWGQGRGKIVDGGRGLDLTLDRSSGSGFQSKSEYLFGKIDMQIKLVPGNSAGTVTTFYLSSQGSTHDEIDFEFLGNVTGEPYTLHTNVFTQGQGQREQQFRLWFDPTQSFHTYSIIWNPQHVIFAVDGTPIRDFKNHEARGVAFPKSQPMRVYASLWNADDWATQGGRVKADWSKAPFVASFRDFNADACVWSNGAQRCPVGTMETVAAPAGGRRGGAGGWWNQELSDMSYRRMRWVQRKFMIYNYCTDAKRFPQGTPAECKLR,soluble
5,MKNDVISPEFDENGRPLRRIRSFVRRQGRLTKGQEHALENYWPVMGVEFSEAPVDFATLFGREAPVTLEIGFGMGASLVAMAKARPEQNFLGIEVHSPGVGACLASANEEGVENLRVMCHDAVEVLHKMIPDNSLSMVQLFFPDPWHKARHNKRRIVQVPFAELVLSKLKLGGVFHMATDWEAYAEHMLEVMSSIDGYKNLSESNDYVPRPESRPVTKFEQRGHRLGHGVWDLMFERVK,not soluble
6,YPHHLGTSPRHPLNSGTEMAGGAWGRLACYLEFLKKEELKEFQLLLANKAHSRSSSGETPAQPEKTSGMEVASYLVAQYGEQRAWDLALHTWEQMGLRSLCAQAQEGAGHSPSFPYSPSEPHLGSPSQPTSTAVLMPWIHELPAGCTQGSERRVLRQLPDTSGRRWREISASLLYQALPSSPDHESPSQESPNAPTSTAVLGSWGSPPQPSLAPREQEAPGTQWPLDETSGIYYTEIREREREKSEKGRPPWAAVVGTPPQAHTSLQPHHHPWEPSVRESLCSTWPWKNEDFNQKFTQLLLLQRPHPRSQDPLVKRSWPDYVEENRGHLIEIRDLFGPGLDTQEPRIVILQGAAGIGKSTLARQVKEAWGRGQLYGDRFQHVFYFSCRELAQSKVVSLAELIGKDGTATPAPIRQILSRPERLLFILDGVDEPGWVLQEPSSELCLHWSQPQPADALLGSLLGKTILPEASFLITARTTALQNLIPSLEQARWVEVLGFSESSRKEYFYRYFTDERQAIRAFRLVKSNKELWALCLVPWVSWLACTCLMQQMKRKEKLTLTSKTTTTLCLHYLAQALQAQPLGPQLRDLCSLAAEGIWQKKTLFSPDDLRKHGLDGAIISTFLKMGILQEHPIPLSYSFIHLCFQEFFAAMSYVLEDEKGRGKHSNCIIDLEKTLEAYGIHGLFGASTTRFLLGLLSDEGEREMENIFHCRLSQGRNLMQWVPSLQLLLQPHSLESLHCLYETRNKTFLTQVMAHFEEMGMCVETDMELLVCTFCIKFSRHVKKLQLIEGRQHRSTWSPTMVVLFRWVPVTDAYWQILFSVLKVTRNLKELDLSGNSLSHSAVKSLCKTLRRPRCLLETLRLAGCGLTAEDCKDLAFGLRANQTLTELDLSFNVLTDAGAKHLCQRLRQPSCKLQRLQLVSCGLTSDCCQDLASVLSASPSLKELDLQQNNLDDVGVRLLCEGLRHPACKLIRLGLDQTTLSDEMRQELRALEQEKPQLLIFSRRKPSVMTPTEGLDTGEMSNSTSSLKRQRLGSERAASHVAQANLKLLDVSKIFPIAEIAEESSPEVVPVELLCVPSPASQGDLHTKPLGTDDDFWGPTGPVATEVVDKEKNLYRVHFPVAGSYRWPNTGLCFVMREAVTVEIEFCVWDQFLGEINPQHSWMVAGPLLDIKAEPGAVEAVHLPHFVALQGGHVDTSLFQMAHFKEEGMLLEKPARVELHHIVLENPSFSPLGVLLKMIHNALRFIPVTSVVLLYHRVHPEEVTFHLYLIPSDCSIRKELELCYRSPGEDQLFSEFYVGHLGSGIRLQVKDKKDETLVWEALVKPGDLMPATTLIPPARIAVPSPLDAPQLLHFVDQYREQLIARVTSVEVVLDKLHGQVLSQEQYERVLAENTRPSQMRKLFSLSQSWDRKCKDGLYQALKETHPHLIMELWEKGSKKGLLPLSS,soluble
7,MGSDKIHHHHHHMEKRYQIFISSTFIDLKDERQAALKAILEIDHMPAGMELFSATDDSAWQLIQDVIDSSDYYILIVGGRYGSLDEAGLSYTEKEYDYALLTKKPVIPLLHENPDNLPRDKTETDSNAWKKLQDFRKKVQKKHTCVYWRNADDLKAKVIVGLTSAIKRHPAVGWVRADKVPTETALAEVLSLKNKITELEKEAALLRDKPPSGTEFLAQGNDKYEIHLSFKSRGKFSIFSHDEDKKYNASINLTWNAIFAAVAPSMINEASAHTLRQAFTDFFKRESLKAFQSQKRFENYELVDFSFHKDEIETCIVQLRALGLIKENDRKRSVSDTSTYWTLTPYGNTLMVQLRAIKREPLEDEDLDGTAVES,not soluble
8,MKAVTTSPSDPPDPFDPLDPVDPLASTKPEVDVVLPCLDEADALPWVLARIPPGWRALVVDNGSTDGSAEIARRLGATVVPETRRGFGAACHAGLTAATADIVCFCDCDGSLDPSLLVPFVREVRDGAADLVLGRRRPHGRGAWPAHARAGNLALARMLRRRTGLRLHDLGPLRAARREPLLALGLTDRRSGYPLQMVVRAADAGWRIAEHDVPYLPRTGVSKVTGTWRGTWQAVRDMSRVLAEPAQDGPPESGSLSSSQGGSSQLEHHHHHH,not soluble
9,GGSEDEDSPLDALDLVWAKCRGYPSYPALIIDPKMPREGMFHHGVPIPVPPLEVLKLGEQMTQEAREHLYLVLFFDNKRTWQWLPRTKLVPLGVNQDLDKEKMLEGRKSNIRKSVQIAYHRALQHRSKVQGE,soluble
10,MEGLLIDYVQPGSIAEELEIEAGDRLVAINGQDLRDIIDFSFYAHDEELALEIVKPSGDHWEAEIERDGDEPLGLVFAPPVPAQCGNKCVFCFVHQLPKGLRRPLYVKDEDYRLSFLYGNYVTLSNIRRGDLDRIVAQRLSPLYISVHATNPALRERLLGRSEILPILDLMRELAAARIVMHSQIVLCPGLNDGVELEKTVRDLAGLHPWVESLAIVPIGLTKHRRGLPALEPVTASYAETFVQNWQPAAERLERELGAPFLFIADEFYIKAGLPFPPLETYGDLPQIENGVGMIPLFLDESERVLKKARKGKPVTVTVVTGESPYRYLAAFLERLSVRTGATFKPVAVHNRLFGESVTVTGLVAGSDIVEELSGRDLGDAVLVPDVMLKEGEGIFLDDLSVDGLGKSLGTRVLVVEATPQGVVDALRRVRSMLEHHHHHH,not soluble
11,MAHHHHHHMGTLEAQTQGPGSMSVMPDHWIKERALKDGMISPFVDHKEGTGVLSYGLSSYGYDARLDNKFKIFANTHSVVVDPKNFSQDSFVDREGDFCIIPPNSFMLAKTVEYFNIPRDVMVVCVGKSTYARCGIVVNVTPLEPGWSGYVTLEFSNTSPLPVKVYAFEGACQFLFFSGKERCSKSYDEAGGKYMGQSDVTLPIIS,soluble
12,MGSDKIHHHHHHMTNGRILFIREREFARSNVINYGMALVATAASKAFSVRAIDNNGLYRLYSHDDIAAEVEHFRPDVIGLSIITANALTSYETAEMLKRRFPDIPILAGGLHVSHQVGEALESGIDYVVRGEADLTIVPLLSALVEARDRGMPPDFTGIAGVSHGRGEAFVDGGNATLPLNLDEHSDVDFGLYDLGDFYRHPRDSLAIGSVLTQRGCPFRCTFCSDQYLSQSVRYRSIARSVDEIEDKLDRFGVNIFNIRDADFTMHNERVVEFCNELIRRGLHNRINLTIETDSFRVIPRDTLALMKQSGFSSIGFGIERLTPEIQRRIKKNISRSRIMENLKNCRELGFVISVHCLIGFSFDTMEDIAREQALFDELADQYVDIVSASIVVACPGTSEFSAVPPERSSWYLNPSAFPSRRPLYQVVRRFQYDPRHVPIYDFPPGMMERMMDFRDHFRKKTIGKRGRPLLWAYLLMLQIARLSEALYAASPRLERATFGWTLDWLETLNAIFTKLWAKRNDDRVNANHSCGQTPQP,not soluble
13,MSTAETAVAPVDYRTDPSQYKHWKLSFNGPVATLGIDIAEDGGIRDGYKLKLNSYDLGVDIELHDAIQRIRFEHPEVRTVVLTSLKDRVFCSGANIFMLGLSTHAWKVNFCKFTNETRNGLEDSSRHSGLKFLAAVNGACAGGGYELALACDEIYLVDDRSSSVSLPEVPLLGVLPGTGGLTRVTDKRKVRHDRADIFCTVVEGVRGERAKAWRLVDEVVKPNQFDQAIQARALELAAQSDRPAHAQGVPLTRIERTDREDGLTYKTLDVTIDRAKRIATFTAKAPQTEPPASIDAIVAAGANWWPLKFAREFDDAILSMRTNELAVGTWVFRTEGDARHLLAADASLMQHKDHWFVRETIGLLRRTLARIDVSSRSLFALIEPGSCFAGTFAELAFAADRTYMAALPANEDEEPAITLSEVNFGLYPMVTHQSRLARRFYEETEPLDAVRSRIGQAIKPVEAERLGLVTASPDDIDWADEIRIALEERAAMSPDALTGLEANLRFNGPETMETRIFGRLTAWQNWIFNRPNAVGEKGALKVYGKGSKAQFDVSRV,soluble
14,MGSDKIHHHHHHMTKHQNFIETKEYKRFAEFCDACIKYQYIGICYGQPGVGKTLSSRYYTNWNTIEKQVNHRGWEDLASKTTDDILSVNKIFYTAPAEKQTRLSNDLYSISASIDLGQKLHIVNKYGHDHSKHYSDMFKYIDLIIVDEIDRLKVQHLEQLRAIYDEHNLAMIFIGMPGIEKKLSRYPQLYSRIGFAHEFDNLSKDETHHILEYKWQDLGFDLKLEDFTDYEAITTIIKITKGNFRLIHRLFAQIDRIMDINGLDKISTEVVETARDSLVIGIR,not soluble
15,MGSDKIHHHHHHMLLPNTRLIAAEQLLSPVDAARNRRLADTALTTAKSAGASYCDVRVGRYLRQFVITREAQVENVVNAESSGVGVRVLADGAWGFAATNTLTSDGVATATRQAVAIAKANARLGGTPVQLAPVTPAGQVSWKTPIKKNAMEVPLQDKVALLMDVNAAALNAGATFVASRMFAINEQKYFASSDGSYIDQDVHRLWLPFTVTAVDKASGKFRTRDGLSSPMGMGYEYLDGAAGEKHRLPGGLIGYGRSYDAREDAIAAAKQAREKLTAPSVKAGKYDLVIDPSNLFLTIHESVGHPLELDRVLGYEANYAGTSFATLDKRDAGYRWGSDAVTFVADKTQPGSLGAVGYDDEGVKTKQWDLVKDGILVDYQCTRDQAHLLGKTASDGCSYADSWSNVQFQRMPNVSLAPGRTPLAVADMIKNVERGLYIHGRGSYSIDQQRYNAQFGGQLFYEIENGQVTRLVEDGAYQIRTPEFWNACSAVCDQRDFRLGGSFFDGKGQPSQVSAVSHGSSTARFDGINVINTARSLG,not soluble
